{"source": "patent US20030022853A1", "key": {"[1]": {"molecular_target": "pure human c-JUN protein (full length, Promega) (human) (UniProt P05412)", "sequence (P05412 whole entry)": "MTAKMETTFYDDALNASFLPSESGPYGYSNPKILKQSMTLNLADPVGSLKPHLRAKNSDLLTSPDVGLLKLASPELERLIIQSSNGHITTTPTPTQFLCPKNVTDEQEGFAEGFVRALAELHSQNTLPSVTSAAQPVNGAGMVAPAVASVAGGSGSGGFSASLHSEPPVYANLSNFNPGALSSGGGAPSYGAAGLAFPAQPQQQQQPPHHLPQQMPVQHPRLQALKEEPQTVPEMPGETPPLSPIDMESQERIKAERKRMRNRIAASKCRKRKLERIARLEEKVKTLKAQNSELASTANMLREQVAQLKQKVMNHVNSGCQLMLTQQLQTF", "experiment": "laser fluorescence quenching assay, 1 µg antibody + 1 µg c-JUN + 0.075 pmole JD1F/2F, 50 mM NaCl"}, "[2]": {"molecular_target": "pure human c-JUN protein (full length, Promega) (human) (UniProt P05412)", "experiment": "laser fluorescence quenching assay, 5 µg antibody + 1 µg c-JUN + 0.075 pmole JD1F/2F, 50 mM NaCl"}, "[3]": {"molecular_target": "pure human c-JUN protein (full length, Promega) (human) (UniProt P05412)", "experiment": "laser fluorescence quenching assay, 750 ng antibody + 250 ng c-JUN + 0.075 pmole JD1F/2F, 50 mM NaCl"}, "[4]": {"molecular_target": "pure human c-JUN protein (full length, Promega) (human) (UniProt P05412)", "experiment": "laser fluorescence quenching assay, 1 µg antibody + 1 µg c-JUN + 0.075 pmole JD1F/2F, 50 mM NaCl (c-JUN:DNA alone 25%)"}, "[5]": {"molecular_target": "pure human c-JUN protein (full length, Promega) (human) (UniProt P05412)", "experiment": "laser fluorescence quenching assay, 5 µg antibody + 1 µg c-JUN + 0.075 pmole JD1F/2F, 50 mM NaCl (c-JUN:DNA alone 25%)"}, "[6]": {"molecular_target": "pure human c-JUN protein (full length, Promega) (human) (UniProt P05412)", "experiment": "laser fluorescence quenching assay, 750 ng antibody + 250 ng c-JUN + 0.075 pmole JD1F/2F, 50 mM NaCl (c-JUN:DNA alone 11%)"}}, "data": [{"substance": "monoclonal IgG1 antibody, c-JUN (KM-1) (Santa Cruz Biotechnology)", "values": [{"measurement": "further decrease in fluorescent intensity from the c-JUN:DNA complex", "setting": "[1]", "value": 12, "unit": "%"}, {"measurement": "further decrease in fluorescent intensity from the c-JUN:DNA complex", "setting": "[2]", "value": 17, "unit": "%"}, {"measurement": "further decrease in fluorescent intensity from the c-JUN:DNA complex", "setting": "[3]", "value": 16, "unit": "%"}, {"measurement": "decrease in fluorescent intensity compared to DNA alone", "setting": "[4]", "value": 37, "unit": "%"}, {"measurement": "decrease in fluorescent intensity compared to DNA alone", "setting": "[5]", "value": 42, "unit": "%"}, {"measurement": "decrease in fluorescent intensity compared to DNA alone", "setting": "[6]", "value": 27, "unit": "%"}]}]}
